According to patent US20250145691A1:

Target: Pangolin CoV S2-37 (Pangolin CoV)

B1: Antibody SC45 Fab (Fab, V domains shown)
VH: QVQLQESGPGLVKSSETLSLTCTVSGGSISSYYWSWIRQPPGKGLEWIGCIYSSGSTNYNPSLKSRVTISVDSSKNQFSLRLNSVTAADTAVYYCARHKGTDFWSGYSFTPRGGWFDPWGQGALVSVSS
VL: DIQMTQSPSSLSASVGDRVTITCRASQSISSYLNWYQQKPGKAPKLLIYGASNLQSGVPSRFSGSGSETDFTLTISSLQPEDFASYYCQQSHSIPVTFGQGTKLEIK
  koff: 0.000923 s⁻¹
  kon: 32100 M⁻¹ s⁻¹
